Test results reported in patent US20210069339A1, “CNP PRODRUGS” (ASCENDIS PHARMA GROWTH DISORDERS A/S, priority 2015, published 2021).
Read-outs that look alike come from different tables or passages of the source. Bridges are numbered along the chain shown (N, C = ends). Where no end group is shown, it is not given here.

Columns and labels:
[1] = target: T1, neutral endopeptidase (NEP) (Homo sapiens, UniProt P08473); assay: Digest of CNP variants by Neutral Endopeptidase in vitro; format: in vitro ADME; conditions: recombinant human neutral endopeptidase (NEP), pH 7.4, read-out: half life norm. (converted)
T1 construct: purchased Enzo Life Sciences GmbH, Lörrach, Germany
T1 sequence (P08473 whole entry): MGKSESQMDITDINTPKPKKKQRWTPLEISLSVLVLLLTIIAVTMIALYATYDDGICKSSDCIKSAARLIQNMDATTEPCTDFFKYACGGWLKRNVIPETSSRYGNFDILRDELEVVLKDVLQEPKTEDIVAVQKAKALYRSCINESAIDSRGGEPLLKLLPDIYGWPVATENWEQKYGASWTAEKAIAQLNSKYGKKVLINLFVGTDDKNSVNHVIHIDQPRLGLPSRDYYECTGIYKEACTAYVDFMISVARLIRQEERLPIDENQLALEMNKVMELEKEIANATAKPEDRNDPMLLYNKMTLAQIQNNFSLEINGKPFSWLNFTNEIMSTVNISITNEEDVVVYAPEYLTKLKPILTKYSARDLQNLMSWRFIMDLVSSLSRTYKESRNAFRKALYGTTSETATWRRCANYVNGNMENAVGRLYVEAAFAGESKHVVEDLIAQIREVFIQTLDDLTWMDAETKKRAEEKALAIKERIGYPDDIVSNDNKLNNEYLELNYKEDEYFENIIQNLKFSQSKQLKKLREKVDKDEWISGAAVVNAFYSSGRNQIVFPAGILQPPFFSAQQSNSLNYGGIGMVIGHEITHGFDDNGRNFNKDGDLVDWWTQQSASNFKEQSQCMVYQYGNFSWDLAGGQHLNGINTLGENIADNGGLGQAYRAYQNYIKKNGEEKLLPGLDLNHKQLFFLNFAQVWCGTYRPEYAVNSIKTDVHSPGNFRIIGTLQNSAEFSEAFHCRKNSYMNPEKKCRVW
Source text: Samples were taken at different time intervals. […] The resulting reaction products were assigned using HPLC-MS.

[2] = animal studies; cited from earlier work
[3] = doses up to 15 μg/kg, healthy volunteers; cited from earlier work
[4] = in vivo; cited from earlier work
[5] = after intravenous (iv) administration; cited from earlier work

## CC[C@H](C)[C@@H]1NC(=O)[C@H](CCCNC(=N)N)NC(=O)[C@H](CC(=O)O)NC(=O)[C@H](CC(C)C)NC(=O)[C@H](CCCCN)NC(=O)[C@H](CC(C)C)NC(=O)CNC(=O)[C@H](Cc2ccccc2)NC(=O)[C@@H](NC(=O)CNC(=O)[C@H](CCCCN)NC(=O)[C@H](CO)NC(=O)[C@H](CC(C)C)NC(=O)CN)CSSC[C@@H](C(=O)O)NC(=O)CNC(=O)[C@H](CC(C)C)NC(=O)CNC(=O)[C@H](CO)NC(=O)[C@H](CCSC)NC(=O)[C@H](CO)NC(=O)CNC1=O [CNP-22]
[1]
  half-life at 100 μg CNP equivalents/mL: 19.2 min

## BMN-111: modified recombinant human C-type Natriuretic Peptide where 17 amino acids have been added to form a 39 amino acid CNP pharmacological analog (PGQEHPNARKYKGANKKGLSKGCFGLKLDRIGSMSGLGC; disulfide 23-39; chains of the INN, looked up)
[2]
  immunogenicity: immunological response
[3]
  cardiovascular effect: mild hypotension
[4]
  half-life: 20 min

## CNP: C-type natriuretic peptide, as discussed in the background
[5]
  half-life: 2 min
